From a protein production outcome set (Wang et al. 2014) come the findings set out here.
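Also: failed if final PepcDB status was selected cloned or expressed and not failed if soluble or beyond.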

The data set can be described thus: label from the status in PepcDB records.
With “MELWTHPTPAAPRLATSTRTRWRRTSRCSQPWATTPGTNSSDASRTPTTASASATSKPQSASARARSVRRSPDCTPRAWSRGARKDRGATTNRPRRPKFCSKRSTTCEATMSNDNETMVADRDPEETREMVRERYAGIATSGQDCCGDVGLDVSGDGGCCSDETEASGSERLGYDADDVASVADGADLGLGCGNPKAFAAMAPGETVLDLGSGAGFDCFLAAQEVGPDGHVIGVDMTPEMISKARENVAKNDAENVEFRLGEIGHLPVADESVNVVISNCVVNLAPEKQRVFDDTYRVLRPGGRVAISDVVQTAPFPDDVQMDPDSLTGCVAGASTVDDLKAMLDEAGFEAVEIAPKDESTEFISDWDADRDLGEYLVSATIEARKPARDD”, the protein production entry is recorded as “failed”.

In the case of “MEMESAAASTRFHQPHMERKMSAMACEIFNELRLEGKLCDVVIKVNGFEFSAHKNILCSCSSYFRALFTSGWNNTEKKVYNIPGISPDMMKLIIEYAYTRTVPITPDNVEKLLAAADQFNIMGIVRGCCEFLKSELCLDNCIGICKFTDYYYCPELRQKAYMFILHNFEEMVKVSAEFLELSVTELKDIIEKDELNVKQEDAVFEAILKWISHDPQNRKQHISILLPKVRLALMHAEYFMNNVKMNDYVKDSEECKPVIINALKAMYDLNMNGPSNSDFTNPLTRPRLPYAILFAIGGWSGGSPTNAIEAYDARADRWVNVTCEEESPRAYHGAAYLKGYVYIIGGFDSVDYFNSVKRFDPVKKTWHQVAPMHSRRCYVSVTVLGNFIYAMGGFDGYVRLNTAERYEPETNQWTLIAPMHEQRSDASATTLYGKVYICGGFNGNECLFTAEVYNTESNQWTVIAPMRSRRSGIGVIAYGEHVYAVGGFDGANRLRSAEAYSPVANTWRTIPTMFNPRSNFGIEVVDDLLFVVGGFNGFTTTFNVECYDEKTDEWYDAHGMSIYRSALSCCVVPGLANVEEYAARRDNFPGLALRDEVKYSASTSTLPVRASSFS”, the protein production result was “failed”.

With “MEMMQDSFQVHRIPQSKYVDGVRWLPQASALNRFFATASYDADCDSSSIEIQSLDPNPRGNHNTNPLIESLSSWTSPSRVSSLEVAGNGGGGGSFKPMVSAATSSGSLHVLMIDLVEGAAIEEFYAAEGERFHVGRVEGVDWREGGECVTVGEDGRVNVVKIVNGEGLRYRKVFDGNGLVAYRAVKWASPTEFVTGGYGFGLQLWDQRKSGEAVSQLKGNWFQGKTSAIVHSIDIHPSRKHTCIAGGSSGTVFAWDLRWPQQPIVLSGVGASENINNPLSESEVWEVQYDSYTKSNVSSSRILPVMTCSEDGILGIIEQGEEPIELLAEPCAINSFDIDRQNPQDVICSLEWESIAVFSRP”, the protein production result is reported as “failed”.

As for “MEMRFFVLGAGSWGTVFAQMLHENGEEVILWARRKEIVDLINVSHTSPYVEESKITVRATNDLEEIKKEDILVIAIPVQYIREHLLRLPVKPSMVLNLSKGIEIKTGKRVSEIVEEILGCPYAVLSGPSHAEEVAKKLPTAVTLAGENSKELQKRISTEYFRVYTCEDVVGVEIAGALKNVIAIAAGILDGFGGWDNAKAALETRGIYEIARFGMFFGADQKTFMGLAGIGDLMVTCNSRYSRNRRFGELIARGFNPLKLLESSNQVVEGAFTVKAVMKIAKENKIDMPISEEVYRVVYEGKPPLQSMRDLMRRSLKDEFWASVVDSSL”, the protein production result was “not failed”.

“MEMSKQLGKKFNLLTLLAYAAPTMALMLFMSIYTMVDGMFIARYVGATALSAVNIFFPIYGLIIAIALMLGTGANAIIAKKIGENNEEEAKENFTFIVICGAVLGLVITVFGLLLMEPILLMLGAGATEELFDFTYTYAKIILCTSPFMILQMLFQNFFVTAGKPNLGLTITVVGGVANIVLDYVFIVLLQMGIAGAGIATAIGIFIPAAYGFVYFIYNKESGLHFVKPKVDGKVLLNSCINGSSEMVSNLASSIVTFAFNLLMIKHLGVDGVAAITIMLYVMFILSSISMGYSAGVAPIISYNYGSKNSSQLKRVFNYSLLIIVIGSVTMYGVSMMFGAYFIQFMAPEGSAVYHIAIEGLNIFSISFLFMGFNIFSSMVFTAFSNGKISAAISFLRTLVFVLASLWILPAILGVTGIWLAIPLAEILSVIVCIFFLTHYRNDYHYA”: the protein production result was “failed”.

For “MEMVKSRSKVAIIGAGFVGASAAFTMALRQTANELVLIDVFKEKAIGEAMDINHGLPFMGQMSLYAGDYSDVKDCDVIVVTAGANRKPGETRLDLAKKNVMIAKEVTQNIMKYYNHGVILVVSNPVDIITYMIQKWSGLPVGKVIGSGTVLDSIRFRYLLSEKLGVDVKNVHGYIIGEHGDSQLPLWSCTHIAGKNINEYIDDPKCNFTEEDKKKIAEDVKTAGATIIKNKGATYYGIAVSINTIVETLLKNQNTIRTVGTVINGMYGIEDVAISLPSIVNSEGVQEVLQFNLTPEEEEALRFSAEQVKKVLNEVKNL”, the protein production entry is listed as “not failed”.

For “MENEKILNPIIIQRADPMIYKHNDGYYYFTASVPEYDRIEVRKAKTIEGLRNAEPVDVWRRHESGEMSNLIWAPEIHFINGAWYIYFAAAPDKNIEDDTFNHRMFVIQNENENPFTGNWVEKGRIKTAWESFSLDATIFEHNEKLYYVWAQQDINIKGHSNIYIAEMENPWTLKTKPVMLTKPELEWEIKGFWVNEGPAVLKKNGKIFITYSASATDVNYCIGMLTAEENSNLLDKNSWTKSQTPVFKTSMENHQYGPGHNSFTVSEDGKHDVIVYHARNYTEIKGDPLYDPNRHTRAQIINWREDGTPDFGVPEVDSLEIETPVKA”, the protein production result is given as “not failed”.

With “MENINFFIVFIEGILSIFSPCILPILPIYLSMLSNSSVEDIRDSNFKSGVLIRNTLFFTLGISTTFFILGSSISALSSFFNTNKNIIMILGGVIILFMGLFYLGVINLNILNREKRLNFKYKNMSPLSAFVLGFTFSFGWTPCIGPILASVLVMASSSKNLLMSNLLILVYTIGFILPFIIASLFYGKLFKKFDGIKKHMDLIKKISGIFIIIAGLIMLVGGIRNMNNEIKINNNPQINKSESANKDSKNESDNKKQEEGNKIPPIDFTLYDQYGNKHTLSEYKGKTIFLNFWATWCPPCRGEMPYIDELYKEYNENKDDVVILGVASPNLGREGSEEHIKNFLKEENHVFPVVLDENGAMVYQYGINAFPSTFIINKEGYITKYIPGAMTKETMKTLIESER”, the protein production result was “failed”.

Regarding “MENLKNIQPREDFNWEEFEAGGVHAAVSRQEQEAAYDKTLNTIKEKEVVMGRVTAINKREVVINVGYKSEGVVPATEFRYNPELKVGDEVEVYIENQEDKKGQLVLSHRKARAARSWERVNEALEKDEIVKGYVKCRTKGGMIVDVFGIEAFLPGSQIDVRPIRDYDAFVEKTMEFKIVKINQEYKNVVVSHKVLIEAELEQQKKEIIGKLEKGQVLEGIVKNITSYGVFIDLGGVDGLIHITDLSWGRVAHPEEIVQLDQKINVVILDFDEDRKRIALGLKQLMPHPWDALDSELKVGDKVKGKVVVMADYGAFVEIAQGVEGLIHVSEMSWTQHLRSAQDFLHVGDEVEAVILTLDREERKMSLGLKQLKPDPWADIETRFPVGSRHHARVRNFTNFGVFVEIEEGVDGLIHISDLSWTKKIKHPSEFTEVGADIEVQVIEIDKENRRLSLGHKQLEENPWDVFETVFTVGSIHEGTVIEVMDKGAVVSLPYGVEGFATPKHMVKEDGSQAVLEEKLPFKVIEFNKDAKRIIVSHSRVFEDEQKMAQREANAERKAEAKAAQKEAAAEAANPAQAVEKATLGDLGELAALKEKLSEN”, the protein production entry is “failed”.

Regarding “MENLTNDVITILQYLLPGFVSAWVFYSLTSYPKPSQFERVVQALIFTIFIQAIVVVVEFSVRWLCATYEITGVPDKFGLVGSVVTAILLGVAFAGFANNDLLHKCLRRCLITRETSYLRNGLVPFYRTLLLLSYT”, the protein production result was “failed”.

As to “MENPLFCPDCGMMRDNCTCKGKGRLSFFRNIIRPPEKSDTLNEDLQRRYPHIPPEIIENFPFPQPRPGQLDIINDIYQAIEEGYRYVILEAGTGTGKSAIACTLAGIYQPAYILTMTKQLQDQYAREFGFPVVKGRSNFFCLNDNLESTCDMGTCQTLPSSEKFQCPYGVVRGETLLGEEAFQDSYGNRVFFKTAEHCQYWEQKAEAINSPITLMNYDYAFLELNYVGHFDRRNLMILDEAHNIEDKLMRRLEVTISNKRLSKDIRRTIPPSMLREDDPAEWVLQIEAIADHYSDLELDSMSRRRRDRIKRTIKRLSELRMSLEDEPKNWVIDADDDSVSFKPLRVHHYAHDRLFSYSEVCLFMSATILSERLFCQWLGINPGDAYFVRVDSPFPASRRPIELKIAGKMSRNRIRHTAPETIPILNRILERHKNDKGLIHTHNYRCQRFIMDNIPSRRLIDHKASNREAVLRYFEESDEPLVLVSPSMSEGVDLPYDKCRFQVIYKIPFPYLGDKQVNRRQRMDQRWYAYKTIMTLMQAYGRGMRAHDDSCYTYILDGNIEMIFRSPLYRSLLPEFFKEAIVNE”, the protein production entry is “failed”.

With “MENQEVVLSIDAIQEPEQIKFNMSLKNQSERAIEFQFSTGQKFELVVYDSEHKERYRYSKEKMFTQAFQNLTLESGETYDFSDVWKEVPEPGTYEVKVTFKGRAENLKQVQAVQQFEVK”, the protein production result is on record as “not failed”.

Take “MENRRIVIITGANSGIGKEAAQRFANEGDHVIMACRNIAFSRKVQHDIIAASGNDHVDLLELDVSSFASIRTFCTTFNSQYKRLDILIHNAAYFNHGEPYRLSPDGIELTFATNVFGPYLLTSLLRDRLKQSEDPRILHAGSNIIKHFFDPKQTFDLDLLQGNHGTKSYSVYKMYCQSKMALMLLTFQMAEVFADDGIKVNALQINGAKMSKRTIQKVKPWWRPIAWGQNLFFPPPSYMADKYFTICTSDKYKQTTGKLFNDKLEIMEPSPTHYPGFFKQMKLLLGSNVYPAYENTNIREKLWALCKELVGELEHHHHHH”: the protein production entry was “not failed”.

As for “MENSFLSSKLVFLLAIALVLFLNTELSFLTAEGASDSNSKVYIVYLGQREHDDPELLTASHHQMLESLLQSKEDAHNSMIYSYQHGFSGFAALLTSSQAKKISEHPEVIHVIPNRILKLKTTRIWDHLGLSPIPTSFSSSSSAKAKGLLHNTSMGSEAIIGVVDSGIWPESKVFNDQGLGPIPKRWRGKCRSGEKFNATMHCNKKLIGAKYYQSGLLAMNGGKFNRIIIRDFKSNRDATGHGTHTATIAGGSFVPNASFYGLARGTVRGGAPRARIASYKACWNVVGWGGICSSADMWKAYDDAIHDQVDVLSVSIGASIPEDSERVDFIAAFHAVAKGITVVAAAGNDGSGAQTICNVAPWLLTVAATTLDRSFPTKITLGNNQTFFGKTILEFDSTHPSSIAGRGVVAVILAKKPDDRPAPDNSYIFTDYEIGTHILQYIRTTRSPTVRISAATTLTGQPATPKVAAFSSRGPNSVSPAILKPDIAAPGVSILAAVSPLDPGAFNGFKLHSGTSMSTPVVSGIIVLLKSLHPKWSPAAMRSALVTTAWRTSPSGEPIFAQGSNKKLADPFDYGGGLVNPEKAAKPGLVYDMGIKDYINYMCSAGYNDSSISRVLGKKTKCPIPKPSMLDINLPSITIPNLEKEVTLTRTVTNVGPIKSVYRAVIESPLGITLTVNPTILVFKSAAKRVLTFSVKAKTSHKVNSGYFFGSLTWTDGVHDVTIPVSVKTTISM”, the protein production entry was “failed”.

Consider “MENSLNQNKVWGWGELALMYFPNISQKSATMQLLKWIRVSDELVGQLEKSGWHPGKKYLTPRQKDYIVGHLGEP”, for which the protein production entry was “failed”.

As for “MENSTLYIVIAGLWLAVGFGIFLKKLDMPVIIGYICTGTVLAAFFKINDFDLLSDIGEFGIVFLMFMIGIEFNFDKLKSIKQEVLVFGLLQVVLCALIAFLLGYFVLGLSPIFSLVLGMGLSLSSTAIVLKFFEDSKQLSTPMGKSAVGILIFQDIAAIPMLLILTILGSKDSNVNLLILKTFISAGIILVLLLLPGKKGANLILEQAKDTRLPEIFIGTILVIVCSAAGLSHFFGFSMSLGAFIVGMAISKSRYKINVQEEFAQLKNLFLALFFITIGMQINVSFFMEKFFVVIFLLILVMGFKTAIIYALLRFFRDAKTAIKTALSLAQIGEFSFVIFLNSGSHQLFNLQEKKGILGFLHQKNILNIAQNDIHQLLILMVVFSMLATPFILKYLESIAQFILHQKSQENEPAKK”, the protein production result is recorded as “failed”.
